Reference: patent US9988424

B1: CH59 (antibody, V domains shown)
VH: EVQLVESGGGLVQPGRSLRLSCAASGFTFDDGAMHWVRQAPGKGLEWVSGISWNSNIIAYADSVKGRFTISRDNAKNSLYLEMNSLRVEDTALYYCAKDSPRGELPLNYWGQGTLVTVSS
VL: SYELTQPPSVSVSPGQTARITCSGDALPKNYAYWYQQKSGQAPVLVIYEDSKRPSGIPERFSGSSSGTMATLTISGAQVEDEADYYCYSTDSSGNHRVFGGGTKLTVL
B2: 697D (antibody, V domains shown)
VH: QVQLVQSGAEVKKPGSSVKVSCKASGGNFNTYTISWVRQAPGQGLEWMGRIIPIFGIVNPAQKFPGRVTINVDKSTNTAYMELSSLRSEDTAVYYCATSGVGLHFGYFDYWGQGTQVTVSS
VL: QSVLTQPPSVSGAPGQRVTISCTGSSSNIGAHYDVHWYQQLPGTAPKLLIYGNSNRPSGVPDRFSGSKSGTSASLAITGLQAEDEADYYCQSYDSSLSGYVFGTGTKVTVL

Key:
[1] = target: 92TH023 V2 cyclic peptide (HIV-1); assay: RPMI 8866 cell adhesion to coated peptide, mAb 20 ug/ml
[2] = target: V2 aa 168-182 peptide (HIV-1); assay: ELISA on V2 peptide (FIG. 55A)
[3] = target: 92TH023 V2 cyclic peptide (HIV-1); assay: RPMI 8866 cell adhesion to coated peptide, mAb 10 ug/ml
[4] = target: 92TH023 V2 cyclic peptide (HIV-1); assay: RPMI 8866 cell adhesion to coated peptide, mAb 5 ug/ml

| Binder | % inhibition [1] [%] | EC50 [2] [ng/mL] | % inhibition [3] [%] | % inhibition [4] [%] |
| --- | --- | --- | --- | --- |
| B1 | 44.8 | 3 | 36.7 | 19.4 |
| B2 | – | – | -13.1 | – |
